From patent publication US20240239860A1 (University of Pennsylvania, published 2024)

Molecular target: T1, dipeptidyl peptidase 4 (DPP-4) (UniProt P27487 39-766, limits assumed)
T1 construct: also called adenosine deaminase complexing protein 2; CD26
Experiment: inhibition of DPP-4 cleavage of the chromogenic substrate Gly-Pro-pNA

T1 sequence (P27487 39-766 limits assumed): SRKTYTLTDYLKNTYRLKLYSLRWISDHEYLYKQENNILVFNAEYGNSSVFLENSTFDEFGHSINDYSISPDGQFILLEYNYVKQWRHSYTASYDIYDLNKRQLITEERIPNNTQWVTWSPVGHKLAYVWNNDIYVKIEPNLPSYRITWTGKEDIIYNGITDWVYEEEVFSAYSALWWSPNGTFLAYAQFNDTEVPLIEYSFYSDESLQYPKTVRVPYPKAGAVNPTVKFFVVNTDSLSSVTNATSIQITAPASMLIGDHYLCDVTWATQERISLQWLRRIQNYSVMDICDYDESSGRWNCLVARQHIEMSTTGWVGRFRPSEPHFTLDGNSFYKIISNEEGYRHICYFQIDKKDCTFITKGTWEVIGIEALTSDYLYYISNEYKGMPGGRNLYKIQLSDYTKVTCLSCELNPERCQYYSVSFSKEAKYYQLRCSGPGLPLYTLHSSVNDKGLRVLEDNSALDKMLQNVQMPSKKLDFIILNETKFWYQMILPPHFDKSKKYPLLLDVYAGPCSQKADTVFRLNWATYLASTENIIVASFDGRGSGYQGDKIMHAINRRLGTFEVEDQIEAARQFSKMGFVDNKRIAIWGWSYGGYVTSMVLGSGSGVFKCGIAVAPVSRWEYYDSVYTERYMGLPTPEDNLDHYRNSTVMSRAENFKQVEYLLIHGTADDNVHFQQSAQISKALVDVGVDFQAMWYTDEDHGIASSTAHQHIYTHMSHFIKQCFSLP

binding result: no binding (tested: 100 µM)
B1: thio GLP-1 (GLP-1 7-36 with a thioamide at the Ala8-Glu9 scissile bond) (peptide)
peptide: HXEGTFTSDVSSYLEGQAAKEFIAWLVKGR
modifications: thioamide (C=S in place of C=O) at Ala8 (second residue of the peptide), i.e. the bond between Ala8 and Glu9; printed HA*EGTF...
notes: C-terminal amide is called optional; also called GLP-1-A^s8; thioamide-modified GLP-1
